These results are taken from US20260191981A1 (ARROWHEAD PHARMACEUTICALS, published 2026).

Experiment [1] has as its target T1, human transferrin receptor 1 (hTfR1) (human, UniProt P02786 89-760, limits assumed).
T1 construct: The selections used the biotinylated ECD domain of hTfR1
Kind of experiment: competition phage ELISA (phage-displayed Fab). (In general: ELISA stands for enzyme-linked immunosorbent assay.)

Experiment [2] addresses T1, human transferrin receptor 1 (hTfR1). Kind of experiment: competition ELISA, Fab.
In experiment [3] the target is T2, his-tagged hTfR1 (Acro Biosystems p/n CD1-H5243) (human, UniProt P02786 89-760).
T2 construct: Bought reagent of the SPR assay
T2 sequence (P02786 89-760 limits assumed): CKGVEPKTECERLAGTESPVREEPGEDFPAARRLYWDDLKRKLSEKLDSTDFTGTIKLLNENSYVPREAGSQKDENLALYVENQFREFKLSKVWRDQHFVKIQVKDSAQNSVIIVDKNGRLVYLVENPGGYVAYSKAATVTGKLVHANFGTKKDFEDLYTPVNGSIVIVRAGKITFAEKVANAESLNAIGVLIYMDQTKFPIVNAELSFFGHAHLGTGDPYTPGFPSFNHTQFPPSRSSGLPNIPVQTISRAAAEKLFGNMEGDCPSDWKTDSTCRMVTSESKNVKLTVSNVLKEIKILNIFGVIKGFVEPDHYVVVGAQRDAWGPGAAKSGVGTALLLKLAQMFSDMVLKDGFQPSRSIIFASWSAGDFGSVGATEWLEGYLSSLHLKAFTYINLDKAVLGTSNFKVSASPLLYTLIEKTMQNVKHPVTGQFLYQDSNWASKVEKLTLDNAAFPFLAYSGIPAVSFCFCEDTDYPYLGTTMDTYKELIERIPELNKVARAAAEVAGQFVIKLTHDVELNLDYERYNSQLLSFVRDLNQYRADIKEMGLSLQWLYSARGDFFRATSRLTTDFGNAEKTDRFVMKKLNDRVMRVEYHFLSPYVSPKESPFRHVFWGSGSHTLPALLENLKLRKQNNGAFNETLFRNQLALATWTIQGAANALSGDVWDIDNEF
Kind of experiment: SPR, Biacore X100, His-tagged TfR1 captured by anti-His. The procedure:
Samples were analyzed via Surface Plasmon Resonance (SPR) to determine kinetics against human transferrin receptor 1 (hTfR1). Briefly, a Biacore X100 (Cytiva) was used for SPR measurements using a CM5 chip (carboxymethylated dextran surface, Cytiva p/n BR100399) with anti-histidine antibody irreversibly immobilized on the surface of both flow cells for the reversible capture of his-tagged hTfR1 (Acro Biosystems p/n CD1-H5243). The anti-histidine antibody was irreversibly immobilized via amine coupling using Cytiva provided Amine Coupling Kit (p/n BR100050) and His Capture Kit (p/n 28995056). […] Sample diluent was prepared in house and is composed of 10 mM HEPES buffer pH 7.4, 150 mM NaCl, 3 mM EDTA, and 0.05% Tween 20. Cytiva caps and vials compatible for Biacore X100 are used for sample analysis. Each analysis cycle consists of a capture step followed by sample or blank injection, and finally a regeneration step that removes any sample and hTfR1 on the sensor surface. The capture step was performed at 5 μL/min with a contact time of 24 seconds over the active flow cell only, followed by a fluidics wash with 0.1% Tween 20. Generally, 2 μg/mL hTfR1 is a sufficient concentration to observe adequate hTfR1 captured consistently between cycles. Sample or buffer was injected at 30 μL/min with a contact time of 180 seconds and a dissociation time of 180 seconds followed by a fluidics wash with 0.1% Tween 20. A 10 mM glycine solution at pH 1.5 (provided in His Capture Kit) was used for regeneration at 30 μL/min with a 60 second contact time. A cycle was performed for each sample concentration analyzed along with one cycle repeating one concentration for variability evaluation and 2-3 buffer cycles. Results were analyzed in Biacore Evaluation Software. Buffer cycles were averaged and subtracted from sample injections prior to kinetic fitting. A monovalent or kinetic fit was specified as relevant for the sample analyzed. Accuracy of the fit was evaluated and data points are excluded as applicable. […]
(Surface plasmon resonance follows binding to a sensor surface in real time, without labels.)

The target of experiment [4] is T3, cynomolgus monkey transferrin receptor 1 (cTfR1) (cynomolgus monkey, UniProt H9EXL1 89-760 (rhesus entry)).
T3 construct: The ELISA against cTfR1 is not described in the text
T3 sequence (chain, as listed by the source): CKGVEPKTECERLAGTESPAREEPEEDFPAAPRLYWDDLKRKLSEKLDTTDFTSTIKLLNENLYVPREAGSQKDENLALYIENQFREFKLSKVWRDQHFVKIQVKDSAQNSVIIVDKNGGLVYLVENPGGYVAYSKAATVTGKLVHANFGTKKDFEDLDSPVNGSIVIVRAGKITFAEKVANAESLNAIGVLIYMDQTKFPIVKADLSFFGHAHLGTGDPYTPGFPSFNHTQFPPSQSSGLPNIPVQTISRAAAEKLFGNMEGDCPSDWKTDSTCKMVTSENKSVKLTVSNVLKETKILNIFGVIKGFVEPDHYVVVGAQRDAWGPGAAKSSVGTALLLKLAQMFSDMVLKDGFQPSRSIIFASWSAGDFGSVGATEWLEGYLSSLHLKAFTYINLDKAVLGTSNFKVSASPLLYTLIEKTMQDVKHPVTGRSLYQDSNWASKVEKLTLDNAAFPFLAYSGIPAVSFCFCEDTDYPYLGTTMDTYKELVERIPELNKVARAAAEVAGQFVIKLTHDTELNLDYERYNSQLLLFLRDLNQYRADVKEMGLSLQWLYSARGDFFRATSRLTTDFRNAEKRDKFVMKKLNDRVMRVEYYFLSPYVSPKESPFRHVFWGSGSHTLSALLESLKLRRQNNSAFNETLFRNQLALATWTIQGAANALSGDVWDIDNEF
In words: competition ELISA, Fab.

Experiment [5] addresses T4, his-tagged cTfR1 (Acro Biosystems p/n TFR-C524a) (cynomolgus monkey, UniProt H9EXL1 89-760 (rhesus entry)).
T4 construct: Bought reagent of the SPR assay
In words: SPR, Biacore X100, His-tagged TfR1 captured by anti-His. The procedure: Samples were analyzed via Surface Plasmon Resonance (SPR) to determine kinetics against cynomolgus monkey transferrin receptor 1 (cTfR1). Briefly, a Biacore X100 (Cytiva) was used for SPR measurements using a CM5 chip (carboxymethylated dextran surface, Cytiva p/n BR100399) with anti-histidine antibody irreversibly immobilized on the surface of both flow cells for the reversible capture of his-tagged cTfR1 (Acro Biosystems p/n TFR-C524a). The anti-histidine antibody was irreversibly immobilized via amine coupling using Cytiva provided Amine Coupling Kit (p/n BR100050) and His Capture Kit (p/n 28995056). […] Sample diluent was prepared in house and is composed of 10 mM HEPES buffer pH 7.4, 150 mM NaCl, 3 mM EDTA, and 0.05% Tween 20. Cytiva caps and vials compatible for Biacore X₁₀₀ were used for sample analysis. Each analysis cycle consists of a capture step followed by sample or blank injection, and finally a regeneration step that removes any sample and cTfR1 on the sensor surface. The capture step was performed at 5 μL/min with a contact time of 24 seconds over the active flow cell only, followed by a fluidics wash with 0.1% Tween 20. Generally, 2 μg/mL hTfR1 was a sufficient concentration to observe adequate hTfR1 captured consistently between cycles. Sample or buffer was injected at 30 μL/min with a contact time of 180 seconds and dissociation time of 180 seconds followed by a fluidics wash with 0.1% Tween 20. A 10 mM glycine solution at pH 1.5 (provided in His Capture Kit) was used for regeneration at 30 μL/min with a 60 second contact time. A cycle was performed for each sample concentration analyzed along with one cycle repeating one concentration for variability evaluation and 2-3 buffer cycles. Results were analyzed in Biacore Evaluation Software. Buffer cycles were averaged and subtracted from sample injections prior to kinetic fitting. A monovalent or kinetic fit was specified as relevant for the sample analyzed. Accuracy of the fit is evaluated and data points are excluded as applicable.

Experiment [6] addresses T3, cynomolgus monkey transferrin receptor …. In words: competition phage ELISA (phage-displayed Fab).

T4 sequence (chain, as listed by the source): as above
T1 sequence (P02786 89-760 limits assumed): as the sequence (P02786 89-760 limits assumed) above

B1: Fab0068 (Fab, V domains shown)
VH: EVQLVESGGGLVQPGGSLRLSCATSGYTFTSYWVHWVRQAPGKGLEWVAEINPTNGRVNYIEKFKSRITLSVDKSKSTVYLQMNSLRAEDTAVYYCARGTRAYHYWGQGTLVTVSS
VL: DIQLTQSPSSLSASVGDRVTITCRASDGLYSNLAWYQQKPGKAPKLLIYDATKLASGVPSRFSGSGSGTDYTLTISSLQPEDFATYYCQHFWGTPLTFGQGTKVEIKR
As to B1, the Kd in experiment [1] stood at 0.43 nM; in experiment [2], 0.84 nM; in experiment [3] it was 0.97 nM; in experiment [4] it was 7.37 nM; in experiment [5] it was 2.34 nM; in experiment [6], 1.75 nM. Besides, the koff in experiment [3] was 0.00113 s⁻¹; in experiment [5], 0.00366 s⁻¹. For the same molecule, the results for the kon in experiment [3] and in experiment [5] were 1.17e+06 M⁻¹ s⁻¹ and 1.57e+06 M⁻¹ s⁻¹, respectively.

B2: Fab0002 (Fab, V domains shown)
VH: EVQLVQSGAEVKKPGASVKVSCKASGYTFTSYWMHWVRQAPGQRLEWIGEINPTNGRTNYIEKFKSRATLTVDKSASTAYMELSSLRSEDTAVYYCARGTRAYHYWGQGTMVTVSS
VL: DIQMTQSPSSLSASVGDRVTITCRASDNLYSNLAWYQQKPGKSPKLLVYDATNLADGVPSRFSGSGSGTDYTLTISSLQPEDFATYYCQHFWGTPLTFGQGTKVEIKR
For the molecule B2, the dissociation constant Kd in experiment [1] is 2.8 nM; in experiment [2], 7.28 nM; in experiment [3], 7.68 nM; in experiment [4], 33.8 nM; in experiment [5], 25.2 nM; in experiment [6] it was 0.96 nM. Further, the koff in experiment [3] is 0.00499 s⁻¹; in experiment [5] it was 0.0155 s⁻¹. For the same molecule, the on-rate constant (kon) in experiment [3] is 649000 M⁻¹ s⁻¹; in experiment [5], 614000 M⁻¹ s⁻¹.

B3: Fab0072 (Fab, V domains shown)
VH: EVQLVESGGGLVQPGGSLRLSCATSGYTFNSYWMHWVRQAPGKGLEWVAEINPTNGRFNYIEKFKSRITLSVDKSKSTVYLQMNSLRAEDTAVYYCARGTRAYHYWGQGTLVTVSS
VL: DIQLTQSPSSLSASVGDRVTITCRASDNLYRNLAWYQQKPGKAPKLLIYDARNLASGVPSRFSGSGSGTDYTLTISSLQPEDFATYYCQHFWGTPLTFGQGTKVEIKR
As to B3, the Kd is 0.19 nM in experiment [1]; 0.19 nM in experiment [2]; 0.331 nM in experiment [3]; 11.9 nM in experiment [4]; 3.88 nM in experiment [5]; 1.18 nM in experiment [6]. The koff in experiment [3] came to 0.000614 s⁻¹; in experiment [5], 0.0108 s⁻¹. Moreover, the kon was 1.86e+06 M⁻¹ s⁻¹ in experiment [3] and 2.78e+06 M⁻¹ s⁻¹ in experiment [5].

B4: Fab0074 (Fab, V domains shown)
VH: EVQLVESGGGLVQPGGSLRLSCATSGYTFKSYWMHWVRQAPGKGLEWVAEINPTNGRTNYIEKFKSRITLSVDKSKSTVYLQMNSLRAEDTAVYYCARGTRAYHYWGQGTLVTVSS
VL: DIQLTQSPSSLSASVGDRVTITCRASDGLYSNLAWYQQKPGKAPKLLIYDAKNLASGVPSRFSGSGSGTDYTLTISSLQPEDFATYYCQHFWGTPLTFGQGTKVEIKR
In the case of B4, the dissociation constant Kd came to 0.46 nM in experiment [1]; 0.46 nM in experiment [2]; 0.471 nM in experiment [3]; 17.5 nM in experiment [4]; 4.31 nM in experiment [5]; 2.14 nM in experiment [6]. Also, the koff in experiment [3] was determined as 0.000782 s⁻¹; in experiment [5], 0.0105 s⁻¹. For the same molecule, the association rate constant (kon) was found to be 1.66e+06 M⁻¹ s⁻¹ in experiment [3] and 2.44e+06 M⁻¹ s⁻¹ in experiment [5].

B5: Fab0069 (Fab, V domains shown)
VH: EVQLVESGGGLVQPGGSLRLSCATSGYTFTSYWVHWVRQAPGKGLEWVAEINPTNGRSNYIEKFKSRITLSVDKSKSTVYLQMNSLRAEDTAVYYCARGTRAYHYWGQGTLVTVSS
VL: DIQLTQSPSSLSASVGDRVTITCRASDGLYSNLAWYQQKPGKAPKLLIYDATKLASGVPSRFSGSGSGTDYTLTISSLQPEDFATYYCQHFWGTPLTFGQGTKVEIKR
On to B5, for which the Kd in experiment [1] was found to be 0.35 nM; in experiment [2], 0.75 nM; in experiment [3], 0.783 nM; in experiment [4], 4.68 nM; in experiment [5], 2.72 nM; in experiment [6] it was 1.29 nM. For the same molecule, the koff in experiment [3] is 0.00108 s⁻¹; in experiment [5], 0.00375 s⁻¹. Also, the association rate constant (kon) in experiment [3] and in experiment [5] was 1.38e+06 M⁻¹ s⁻¹ each time.

B6: Fab0073 (Fab, V domains shown)
VH: EVQLVESGGGLVQPGGSLRLSCATSGYTFKSYWMHWVRQAPGKGLEWVAEINPTNGRTNYIEKFKSRITLSVDKSKSTVYLQMNSLRAEDTAVYYCARGTRAYHYWGQGTLVTVSS
VL: DIQLTQSPSSLSASVGDRVTITCRASDNLYRNLAWYQQKPGKAPKLLIYDATKLASGVPSRFSGSGSGTDYTLTISSLQPEDFATYYCQHFWGTPLTFGQGTKVEIKR
Take B6: the Kd was 0.29 nM in experiment [1]; 0.32 nM in experiment [2]; 0.351 nM in experiment [3]; 8.68 nM in experiment [4]; 2.85 nM in experiment [5]; 1.95 nM in experiment [6]. The off-rate constant (koff) in experiment [3] worked out at 0.00065 s⁻¹; in experiment [5], 0.00677 s⁻¹. Moreover, the on-rate constant (kon) in experiment [3] turned out to be 1.85e+06 M⁻¹ s⁻¹; in experiment [5], 2.38e+06 M⁻¹ s⁻¹.

B7: Fab0070 (Fab, V domains shown)
VH: EVQLVESGGGLVQPGGSLRLSCATSGFTFTSYWMHWVRQAPGKGLEWVAEINPTNGRTNYIEKFKSRITLSVDKSKSTVYLQMNSLRAEDTAVYYCARGTRAYHYWGQGTLVTVSS
VL: DIQLTQSPSSLSASVGDRVTITCRASDKLYSNLAWYQQKPGKAPKLLIYDATLLASGVPSRFSGSGSGTDYTLTISSLQPEDFATYYCQHFWGTPLTFGQGTKVEIKR
Consider B7, for which the Kd was 0.49 nM in experiment [1]; 1.11 nM in experiment [2]; 0.923 nM in experiment [3]; 15.3 nM in experiment [4]; 4.52 nM in experiment [5]; 1.39 nM in experiment [6]. In addition, the koff was 0.0012 s⁻¹ in experiment [3] and 0.00582 s⁻¹ in experiment [5]. In addition, the on-rate (kon) in experiment [3] worked out at 1.3e+06 M⁻¹ s⁻¹; in experiment [5] it was 1.29e+06 M⁻¹ s⁻¹.

B8: Fab0071 (Fab, V domains shown)
VH: EVQLVESGGGLVQPGGSLRLSCATSGYTFNSYWMHWVRQAPGKGLEWVAEINPTNGRTNYIEKFKSRITLSVDKSKSTVYLQMNSLRAEDTAVYYCARGTRAYHYWGQGTLVTVSS
VL: DIQLTQSPSSLSASVGDRVTITCRASDGLYSNLAWYQQKPGKAPKLLIYDARNLASGVPSRFSGSGSGTDYTLTISSLQPEDFATYYCQHFWGTPLTFGQGTKVEIKR
As to B8, the dissociation constant Kd in experiment [1] came out at 0.45 nM; in experiment [2], 0.43 nM; in experiment [3], 0.553 nM; in experiment [4], 53.3 nM; in experiment [5], 8.13 nM; in experiment [6], 0.74 nM. Also, the off-rate (koff) was 0.000865 s⁻¹ in experiment [3] and 0.0112 s⁻¹ in experiment [5]. For the same molecule, the values for the on-rate constant (kon) in experiment [3] and in experiment [5] were 1.56e+06 M⁻¹ s⁻¹ and 1.38e+06 M⁻¹ s⁻¹, respectively.

One may read the Kd as the free concentration of one partner at which half of the binding sites on the other are occupied at equilibrium, for simple one-to-one binding. The term koff denotes the rate constant with which the complex falls apart. In general, kon refers to the rate constant with which the complex forms.
